According to patent US20230212587A1, “Mutant Hydroxyphenylpyruvate Dioxygenase Polypeptide, Encoding Gene Thereof and Use Therefor” (Beijing Dabeinong Biotechnology Co., Ltd., priority 2019, published 2023):

Test system: Arabidopsis thaliana T1 plants
Test: Topramezone tolerance of transgenic Arabidopsis thaliana T1 plants (pesticide damage grade by bleached leaf area, score, resistance evaluation)
Type: in vivo
Conditions: HPPDs from ecotypes of Triticum aestivum; for Classification and statistics of pesticide damage grade: Grade 0 / Classification and statistics of pesticide damage grade: Grade 1 / Classification and statistics of pesticide damage grade: Grade 2 / Classification and statistics of pesticide damage grade: Grade 3: number of plants
In short: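 Herbicide tolerance was judged per plant on a bleaching scale (grade 0 no bleaching to grade 3 fully bleached) 7 DAT. Topramezone doses were 0, 25, 50 and 100 g ai/ha on 18-day-old T1 and wild-type plants.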

Molecule	Resistance evaluation (topramezone 25 g ai/ha (1x))	Scores (topramezone 25 g ai/ha (1x))	Classification and statistics of pesticide damage grade: Grade 0 (topramezone 25 g ai/ha (1x))	Classification and statistics of pesticide damage grade: Grade 1 (topramezone 25 g ai/ha (1x))	Classification and statistics of pesticide damage grade: Grade 2 (topramezone 25 g ai/ha (1x))	Classification and statistics of pesticide damage grade: Grade 3 (topramezone 25 g ai/ha (1x))	Resistance evaluation (topramezone 100 g ai/ha (4x))	Scores (topramezone 100 g ai/ha (4x))	Classification and statistics of pesticide damage grade: Grade 0 (topramezone 100 g ai/ha (4x))	Classification and statistics of pesticide damage grade: Grade 1 (topramezone 100 g ai/ha (4x))	Classification and statistics of pesticide damage grade: Grade 2 (topramezone 100 g ai/ha (4x))	Classification and statistics of pesticide damage grade: Grade 3 (topramezone 100 g ai/ha (4x))
TaHPPD3-02: native HPPD of Triticum aestivum ecotype 3, UniProt A0A3B6PKV0, SEQ ID NO: 189 (protein, listed as Triticum aestivum, TaHPPD3 Amino Acid Sequence) MPPTPTTPAATGAAAAAAVTPEHARPRRMVRFNPRSDRFHTLAFHHVEFWCADAASAAGRFAFALGAPLAARSDLSTGNSVHASQLLRSGNLAFLFTAPYANGCDAATASLPSFSADAARRFSADHGLAVRSIALRVADAAEAFRASVDGGARPAFSPVDLGRGFGFAEVELYGDVVLRFVSHPDDTDVPFLPGFEGVSNPDAVDYGLTRFDHVVGNVPELAPAAAYVAGFAGFHEFAEFTTEDVGTAESGLNSMVLANNSEGVLLPLNEPVHGTKRRSQIQTFLEHHGGPGVQHIAVASSDVLRTLREMRARSAMGGFDFLPPPLPKYYEGVRRIAGDVLSEAQIKECQELGVLVDRDDQGVLLQIFTKPVGDRPTLFLEMIQRIGCMEKDERGEEYQKGGCGGFGKGNFSELFKSIEDYEKSLEAKQSAAVQAS	non-resistant (non-resistant plants (scores 68-100))	100	0	0	0	16	non-resistant (non-resistant plants (scores 68-100))	100	0	0	0	16
TaHPPD3m-F372A-02: Triticum aestivum ecotype 3 HPPD mutant F372A, SEQ ID NO: 192 (protein, TaHPPD3m-F372A Amino Acid Sequence) MPPTPTTPAATGAAAAAAVTPEHARPRRMVRFNPRSDRFHTLAFHHVEFWCADAASAAGRFAFALGAPLAARSDLSTGNSVHASQLLRSGNLAFLFTAPYANGCDAATASLPSFSADAARRFSADHGLAVRSIALRVADAAEAFRASVDGGARPAFSPVDLGRGFGFAEVELYGDVVLRFVSHPDDTDVPFLPGFEGVSNPDAVDYGLTRFDHVVGNVPELAPAAAYVAGFAGFHEFAEFTTEDVGTAESGLNSMVLANNSEGVLLPLNEPVHGTKRRSQIQTFLEHHGGPGVQHIAVASSDVLRTLREMRARSAMGGFDFLPPPLPKYYEGVRRIAGDVLSEAQIKECQELGVLVDRDDQGVLLQIATKPVGDRPTLFLEMIQRIGCMEKDERGEEYQKGGCGGFGKGNFSELFKSIEDYEKSLEAKQSAAVQAS	highly resistant (highly resistant plants (scores 0-15))	0	16	0	0	0	highly resistant (highly resistant plants (scores 0-15))	8	12	4	0	0
